Biological target: myeloperoxidase (MPO) (human, UniProt P05164 49-745)
Test: fluorescence strand displacement

myeloperoxidase (MPO), sequence (P05164 49-745): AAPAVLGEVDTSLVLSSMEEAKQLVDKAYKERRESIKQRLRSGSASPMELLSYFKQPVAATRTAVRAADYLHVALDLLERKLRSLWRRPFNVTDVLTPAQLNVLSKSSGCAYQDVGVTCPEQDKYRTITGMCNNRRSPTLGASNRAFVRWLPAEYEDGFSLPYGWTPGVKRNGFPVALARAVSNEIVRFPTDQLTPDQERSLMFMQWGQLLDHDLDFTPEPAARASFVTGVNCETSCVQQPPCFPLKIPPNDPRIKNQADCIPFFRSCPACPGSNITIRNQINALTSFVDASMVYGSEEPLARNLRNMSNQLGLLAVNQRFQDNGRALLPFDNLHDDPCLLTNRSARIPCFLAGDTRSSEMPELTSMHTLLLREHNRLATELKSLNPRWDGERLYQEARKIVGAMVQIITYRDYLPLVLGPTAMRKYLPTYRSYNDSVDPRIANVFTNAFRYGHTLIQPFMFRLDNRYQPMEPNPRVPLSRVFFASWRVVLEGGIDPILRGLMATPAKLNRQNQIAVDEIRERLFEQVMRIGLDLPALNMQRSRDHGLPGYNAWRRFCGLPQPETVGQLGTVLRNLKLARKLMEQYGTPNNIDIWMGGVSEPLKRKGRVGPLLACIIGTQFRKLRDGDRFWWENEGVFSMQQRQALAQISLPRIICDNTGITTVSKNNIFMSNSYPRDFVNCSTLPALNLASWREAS

B1: AptCy3/TBHQ2 duplex (MPO aptamer with trigger strand) (mixed)
DNA 1: CACCTAATACGACTCACTATAGCGGATCCGAAACGCTATTCGGATGGGGTTCCAGATACTAGAAAGAGCAA
DNA 2: CATCCGAATAGCGTTTCGGATC
modifications: internal Cy3-dT at position 45 of the aptamer (Table S1)
- binding result: binds
